Experimental data published in PMC6140609 (Oncoimmunology, 2018).

Columns and labels:
[1] = target: Human OX40-Fc (human) (UniProt P43489); assay: ELISA
[2] = target: the molecule itself; assay: SEC
[3] = target: Human CD40-Fc (human, UniProt P25942 21-193); assay: ELISA
Human CD40-Fc, sequence (P25942 21-193): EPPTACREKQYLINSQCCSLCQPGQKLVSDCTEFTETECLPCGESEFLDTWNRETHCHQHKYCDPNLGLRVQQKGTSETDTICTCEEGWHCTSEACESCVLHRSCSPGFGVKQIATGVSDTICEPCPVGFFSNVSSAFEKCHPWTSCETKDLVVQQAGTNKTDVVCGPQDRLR

Human OX40-Fc (human), sequence (P43489 29-214): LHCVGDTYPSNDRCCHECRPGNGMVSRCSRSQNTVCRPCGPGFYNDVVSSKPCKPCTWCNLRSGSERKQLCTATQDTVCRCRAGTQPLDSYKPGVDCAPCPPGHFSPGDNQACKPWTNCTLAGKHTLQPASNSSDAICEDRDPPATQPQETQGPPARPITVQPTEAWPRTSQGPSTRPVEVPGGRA

scOX40L-scCD27L (from UniProt P23510 51-183; P23510 51-183; P23510 51-183; P32970 52-193; P32970 52-193; P32970 52-193) (ligand)
EC50 [1]: 60.2 nM

scCD27L-scOX40L (from UniProt P32970 52-193; P32970 52-193; P32970 52-193; P23510 51-183; P23510 51-183; P23510 51-183) (ligand)
EC50 [1]: 14.3 nM

B1: OX40L-CD40L (ligand, human)
chain: QVSHRYPRIQSIKVQFTEYKKEKGFILTSQKEDEIMKVQNNSVIINCDGFYLISLKGYFSQEVNISLHYQKDEEPLFQLKKVRSVNSLMVASLTYKDKVYLNVTTDNTSLDDFHVNGGELILIHQNPGEFCVLGGGGSGGGGSGGGGSGDQNPQIAAHVISEASSKTTSVLQWAEKGYYTMSNNLVTLENGKQLTVKRQGLYYIYAQVTFCSNREASSQAPFIASLCLKSPGRFERILLRAANTHSSAKPCGQQSIHLGGVFELQPGASVFVNVTDPSQVSHGTGFTSFGLLKL
stoichiometry N [2]: 3

B2: OX40L-CD27L (ligand, human)
chain: QVSHRYPRIQSIKVQFTEYKKEKGFILTSQKEDEIMKVQNNSVIINCDGFYLISLKGYFSQEVNISLHYQKDEEPLFQLKKVRSVNSLMVASLTYKDKVYLNVTTDNTSLDDFHVNGGELILIHQNPGEFCVLGGGGSGGGGSGGGGSSLGWDVAELQLNHTGPQQDPRLYWQGGPALGRSFLHGPELDKGQLRIHRDGIYMVHIQVTLAICSSTTASRHHPTTLAVGICSPASRSISLLRLSFHQGCTIASQRLTPLARGDTLCTNLTGTLLPSRNTDETFFGVQWVRP
stoichiometry N [2]: 3

B3: OX40L-4-1BBL (ligand, human)
chain: QVSHRYPRIQSIKVQFTEYKKEKGFILTSQKEDEIMKVQNNSVIINCDGFYLISLKGYFSQEVNISLHYQKDEEPLFQLKKVRSVNSLMVASLTYKDKVYLNVTTDNTSLDDFHVNGGELILIHQNPGEFCVLGGGGSGGGGSGGGGSGGGGSREGPELSPDDPAGLLDLRQGMFAQLVAQNVLLIDGPLSWYSDPGLAGVSLTGGLSYKEDTKELVVAKAGVYYVFFQLELRRVVAGEGSGSVSLALHLQPLRSAAGAAALALTVDLPPASSEARNSAFGFQGRLLHLSAGQRLGVHLHTEARARHAWQLTQGATVLGLFRVTPEIPAGLPSPRSE
stoichiometry N [2]: 3

B4: CD40L-CD27L (ligand, human)
chain: GDQNPQIAAHVISEASSKTTSVLQWAEKGYYTMSNNLVTLENGKQLTVKRQGLYYIYAQVTFCSNREASSQAPFIASLCLKSPGRFERILLRAANTHSSAKPCGQQSIHLGGVFELQPGASVFVNVTDPSQVSHGTGFTSFGLLKLGGGGSGGGGSGGGGSSLGWDVAELQLNHTGPQQDPRLYWQGGPALGRSFLHGPELDKGQLRIHRDGIYMVHIQVTLAICSSTTASRHHPTTLAVGICSPASRSISLLRLSFHQGCTIASQRLTPLARGDTLCTNLTGTLLPSRNTDETFFGVQWVRP
EC50 [3]: 12.3 nM

B5: CD27L-CD40L (ligand, human)
chain: SLGWDVAELQLNHTGPQQDPRLYWQGGPALGRSFLHGPELDKGQLRIHRDGIYMVHIQVTLAICSSTTASRHHPTTLAVGICSPASRSISLLRLSFHQGCTIASQRLTPLARGDTLCTNLTGTLLPSRNTDETFFGVQWVRPGGGGSGGGGSGGGGSGDQNPQIAAHVISEASSKTTSVLQWAEKGYYTMSNNLVTLENGKQLTVKRQGLYYIYAQVTFCSNREASSQAPFIASLCLKSPGRFERILLRAANTHSSAKPCGQQSIHLGGVFELQPGASVFVNVTDPSQVSHGTGFTSFGLLKL
stoichiometry N [2]: 3

B6: CD27L-4-1BBL (ligand, human)
chain: SLGWDVAELQLNHTGPQQDPRLYWQGGPALGRSFLHGPELDKGQLRIHRDGIYMVHIQVTLAICSSTTASRHHPTTLAVGICSPASRSISLLRLSFHQGCTIASQRLTPLARGDTLCTNLTGTLLPSRNTDETFFGVQWVRPGGGGSGGGGSGGGGSGGGGSREGPELSPDDPAGLLDLRQGMFAQLVAQNVLLIDGPLSWYSDPGLAGVSLTGGLSYKEDTKELVVAKAGVYYVFFQLELRRVVAGEGSGSVSLALHLQPLRSAAGAAALALTVDLPPASSEARNSAFGFQGRLLHLSAGQRLGVHLHTEARARHAWQLTQGATVLGLFRVTPEIPAGLPSPRSE
stoichiometry N [2]: 3

B7: CD40L-OX40L (ligand, human)
chain: GDQNPQIAAHVISEASSKTTSVLQWAEKGYYTMSNNLVTLENGKQLTVKRQGLYYIYAQVTFCSNREASSQAPFIASLCLKSPGRFERILLRAANTHSSAKPCGQQSIHLGGVFELQPGASVFVNVTDPSQVSHGTGFTSFGLLKLGGGGSGGGGSGGGGSQVSHRYPRIQSIKVQFTEYKKEKGFILTSQKEDEIMKVQNNSVIINCDGFYLISLKGYFSQEVNISLHYQKDEEPLFQLKKVRSVNSLMVASLTYKDKVYLNVTTDNTSLDDFHVNGGELILIHQNPGEFCVL
stoichiometry N [2]: 3

B8: CD27L-OX40L (ligand, human)
chain: SLGWDVAELQLNHTGPQQDPRLYWQGGPALGRSFLHGPELDKGQLRIHRDGIYMVHIQVTLAICSSTTASRHHPTTLAVGICSPASRSISLLRLSFHQGCTIASQRLTPLARGDTLCTNLTGTLLPSRNTDETFFGVQWVRPGGGGSGGGGSGGGGSQVSHRYPRIQSIKVQFTEYKKEKGFILTSQKEDEIMKVQNNSVIINCDGFYLISLKGYFSQEVNISLHYQKDEEPLFQLKKVRSVNSLMVASLTYKDKVYLNVTTDNTSLDDFHVNGGELILIHQNPGEFCVL
stoichiometry N [2]: 3
